From patent US20210009685A1 (ALTEOGEN, published 2021)
Residue numbers refer to the chain shown, from its start.

B1: Parent antibody (anti-FOLR1 antibody of US2005/0232919 A1) (antibody, V domains shown)
VH: EVQLVESGGGVVQPGRSLRLSCSASGFTFSGYGLSWVRQAPGKGLEWVAMISSGGSYTYYADSVKGRFAISRDNAKNTLFLQMDSLRPEDTGVYFCARHGDDPAWFAYWGQGTPVTVSS
VL: DIQLTQSPSSLSASVGDRVTITCSVSSSISSNNLHWYQQKPGKAPKPWIYGTSNLASGVPSRFSGSGSGTDYTFTISSLQPEDIATYYCQQWSSYPYMYTFGQGTKVEIK
notes: also called WT
B2: Modified antibody vAb1 (antibody, V domains shown)
VH: B1 VH with P103V
VL: B1 VL with V25A, S28G, I29L, N32S, N33Y, N54S, L55R
notes: Carries modified CDR-H3, CDR-L1 and CDR-L2

Legend:
[1] = molecular target: T1, FOLR1-Fc (UniProt P15328 25-234, limits assumed); test: ELISA, FOLR1-Fc coated, antibody titrated (experiment with vAb1)
T1 construct: also called FOLR1 (ELISA coating); not shown: Fc part
T1 sequence (P15328 25-234 limits assumed): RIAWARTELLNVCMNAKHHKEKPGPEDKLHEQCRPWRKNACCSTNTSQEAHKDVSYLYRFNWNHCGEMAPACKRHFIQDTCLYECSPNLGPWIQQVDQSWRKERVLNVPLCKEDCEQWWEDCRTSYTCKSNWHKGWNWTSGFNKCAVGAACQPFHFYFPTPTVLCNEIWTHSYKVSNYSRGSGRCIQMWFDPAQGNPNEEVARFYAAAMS
Protocol: (§1) For the purpose of comparing the binding affinities of the primarily selected clones with each other, ELISA was performed at different clone concentrations in the following manner. 25 μL of FOLR1 was added to each well of a 96-well plate at a concentration of 1 μg/mL, coated on the plate at room temperature for 1 hour, and then blocked with 180 μL of 3% skim milk at room temperature for 1 hour. During blocking, samples to be used as primary antibodies were prepared. As primary antibodies, samples selected by screening were used. The samples were diluted to a concentration of 0.1 to 100 nM (0, 0.1, 0.3, 1, 3, 10, 30, and 100 nM) and cold-stored until use. After blocking, 3% skim milk was removed, and 25 μL of the primary antibody was added to each well and allowed to react at room temperature for 1 hour or more. After completion of the reaction, each well was washed three times with PBS-Tween20 (0.1%) buffer. […] After about 5 minutes, 25 μL of 1 M H₂SO₄ was added to each well to stop the reaction, and the absorbance at a wavelength of 450 nm was measured. From the measurement results, the EC (Effector concentration) value was calculated using the GraphPad Prism 7 program.
(§2) The measured values are obtained in different experiments for comparison with the parent antibody.

[2] = molecular target: T1, FOLR1-Fc; test: ELISA, FOLR1-Fc coated, antibody titrated (experiment with vAb2)
Protocol: as §1, §2

[3] = molecular target: T2, Folate receptor alpha (FOLR1) (human, UniProt P15328 25-234, limits assumed); test: SPR, Biacore3000, FOLR1 immobilised; the parent is the reference
T2 construct: Antigen printed simply as FOLR1 for the panning, the clone ELISA and the SPR chip; also called human FOLR1; folate receptor-α
T2 sequence (P15328 25-234 limits assumed): as above
Protocol: (§3) To measure the binding affinity of the selected clone for FOLR1, SPR measurement was performed using a Biacore3000. Before each sample was loaded, a CM5 sensor chip was activated with 0.1 M NHS/0.4 M EDC, and then FOLR1 (20 μg/mL in 10 mM acetate, pH 5.0) was immobilized thereon. Then, unreacted NHS was deactivated with 1 M ethanolamine. 250 μL of each sample was prepared at concentrations of 1, 2, 5, 10, 20 and 40 nM, and association and dissociation sensorgrams were obtained while each sample was flushed at 30 μl/min. The sensor chip was regenerated with 10 mM glycine (pH 2.1). The obtained sensorgrams were analyzed using the BIAevaluation software, and the KD values were calculated.
(§4) To measure the binding affinity of the modified antibody vAb1 produced in Example 2 for FOLR1, an SPR assay was performed using a Biacore3000, in the same manner as described in Examples 1-5. The sensorgram was analyzed using the BIAevaluation software, and the KD value was calculated. […] This value is similar to the relative ratio of the values obtained using ELISA.

[4] = molecular target: T2, Folate receptor alpha (FOLR1); test: SPR, Biacore3000, FOLR1 immobilised on CM5 chip, antibody as analyte
Protocol: as §3, §4

[5] = molecular target: T1, FOLR1-Fc; test: ELISA, FOLR1-Fc coated (experiment with vAb1); the parent is the reference
[6] = molecular target: T1, FOLR1-Fc; test: ELISA, FOLR1-Fc coated (experiment with vAb2); the parent is the reference
[7] = molecular target: T1, FOLR1-Fc; test: ELISA, FOLR1-Fc coated, antibody titrated (experiment with vAb3, vAb4, vAb5)
Protocol: as §1, §2

[8] = molecular target: T1, FOLR1-Fc; test: ELISA, FOLR1-Fc coated (experiment with vAb3, vAb4, vAb5); the parent is the reference
Protocol: as §1, §2

[9] = molecular target: T1, FOLR1-Fc; test: ELISA, FOLR1-Fc coated
Protocol: (§5) For the purpose of comparing the binding affinities of the primarily selected clones with each other, ELISA was performed at different clone concentrations in the following manner. 25 μL of FOLR1 was added to each well of a 96-well plate at a concentration of 1 μg/mL, coated on the plate at room temperature for 1 hour, and then blocked with 180 μL of 3% skim milk at room temperature for 1 hour. During blocking, samples to be used as primary antibodies were prepared. As primary antibodies, samples selected by screening were used. The samples were diluted to a concentration of 0.1 to 100 nM (0, 0.1, 0.3, 1, 3, 10, 30, and 100 nM) and cold-stored until use. After blocking, 3% skim milk was removed, and 25 μL of the primary antibody was added to each well and allowed to react at room temperature for 1 hour or more. After completion of the reaction, each well was washed three times with PBS-Tween20 (0.1%) buffer. As a secondary antibody, HA-HRP was diluted 3,000-fold with 3% skim milk, and 25 μL of the dilution was added to each well and allowed to react at room temperature for 1 hour or more. After completion of the reaction, each well was washed three times with PBS-Tween20 (0.1%), and 25 μL of substrate TMB was added to each well to confirm color development. After about 5 minutes, 25 μL of 1 M H₂SO₄ was added to each well to stop the reaction, and the absorbance at a wavelength of 450 nm was measured. From the measurement results, the EC (Effector concentration) value was calculated using the GraphPad Prism 7 program.
as §2

[10] = molecular target: T2, Folate receptor alpha (FOLR1); test: SPR, Biacore3000, FOLR1 immobilised
Protocol: as §3, §4

[11] = molecular target: T1, FOLR1-Fc; test: ELISA, FOLR1-Fc coated, antibody titrated
Protocol: as §5, §2

| Binder | EC50 [1] | EC50 [2] | Relative Potency [3] | Ka [4] | Kd [4] | koff [4] | kon [4] | Relative Potency [5] | Relative Potency [6] | EC50 [7] | Relative Potency [8] | Relative Potency [9] | Relative Potency [10] | EC50 [11] |
| --- | --- | --- | --- | --- | --- | --- | --- | --- | --- | --- | --- | --- | --- | --- |
| B1 | 11 ng/mL | 11.8 ng/mL | 1 fold (reference) | 1.05e+09 M⁻¹ | 0.96 nM | 0.000401 s⁻¹ | 419000 M⁻¹ s⁻¹ | 1 fold (reference) | 1 fold (reference) | 3.04 ng/mL | 1 fold (reference) |  |  |  |
| B2 |  |  |  | 4.17e+09 M⁻¹ | 0.24 nM | 0.000147 s⁻¹ | 612000 M⁻¹ s⁻¹ |  |  |  |  | 4.48 fold against parent antibody | 4 fold against parent antibody | 2.45 ng/mL |
